Experiment [1] has as its target T1, AtUBC8 (Arabidopsis thaliana, UniProt P35131 1-148). The experiment is described as follows: ITC. On the technique in general: ITC needs no label: the signal is the heat of the interaction.
Experiment [2] has as its target T1, AtUBC8. Description: ITC. This is another data set of the same source.

What is called Kd is the equilibrium constant for the complex coming apart.

T1 sequence (P35131 whole entry): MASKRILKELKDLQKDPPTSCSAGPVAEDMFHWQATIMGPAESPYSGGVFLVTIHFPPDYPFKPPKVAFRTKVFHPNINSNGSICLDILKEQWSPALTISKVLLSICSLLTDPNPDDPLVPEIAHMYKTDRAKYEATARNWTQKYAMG

B1: AtMUB3 (natural protein)
chain: MPEEESIDIKFRLYDGSDIGPFRYSAASTVDFLKQRVVSDWPKGKTVVPKGINEVKLISSGKILENNKTVGQCKTPFGDIAGGVIVMHVVVQPSLAKSKTEKKVDKAPKAVICTCTIL
Turning to B1, binding with AtUBC8 [1] was characterised by a dissociation constant (Kd) of 283 nM. The molecule also returned a Ka in the experiment with AtUBC8 [2] of 3.53e+06 M⁻¹.

(Values after publication PMC4996978 (2016).)
